Positions count from the first letter of the chain named. Numbers in names are those of the source. Values belong to the binder of their own block, whether it stands above or below them.
Target: T1, human serum albumin (human, UniProt P02768 25-609)
T1 construct: also called HSA
Experiment: ProteOn SPR, capture on immobilised HSA
Method: In case of binding of pre-existing antibodies on Nanobodies captured on human serum albumin (HSA) was evaluated using the ProteOn XPR36 (Bio-Rad Laboratories, Inc.). PBS/Tween (phosphate buffered saline, pH7.4, 0.005% Tween20) was used as running buffer and the experiments were performed at 25° C. The ligand lanes of a ProteOn GLC Sensor Chip were activated with EDC/NHS (flow rate 30 μl/min) and HSA was injected at 10 μg/ml in ProteOn Acetate buffer pH4.5 (flow rate 100 μl/min) to render immobilization levels of approximately 3200 RU. After immobilization, surfaces were deactivated with ethanolamine HCl (flow rate 30 μl/min). Nanobodies were injected for 2 minutes at 45 μl/min over the HSA surface to render a Nanobody capture level of approximately 200 RU. The samples containing pre-existing antibodies were centrifuged for 2 minutes at 14,000 rpm and supernatant was diluted 1:10 in PBS-Tween20 (0.005%) before being injected for 2 minutes at 45 μl/min followed by a subsequent 400 seconds dissociation step. After each cycle (i.e. before a new Nanobody capture and blood sample injection step) the HSA surfaces were regenerated with a 2 minute injection of HCl (100 mM) at 45 μl/min. Sensorgram processing and data analysis was performed with ProteOn Manager 3.1.0 (Bio-Rad Laboratories, Inc.). Sensorgrams showing pre-existing antibody binding were obtained after double referencing by subtracting 1) Nanobody-HSA dissociation and 2) non-specific binding to reference ligand lane.

binding result: binds
B2: Reference D (SEQ ID NO: 4) (VHH)
VHH: EVQLLESGGGLVQPGGSLRLSCAASGFTFDTSSMLWVRQAPGKGLEWVSVIHQSGTPTYYADSVKGRFTISRDNSKNTLYLQMNSLRAEDTAVYYCAKFPSSRMKFDYWGQGTLVTVSS
notes: Captured on human serum albumin; also called DOM7r-92-104

binding result: binds
B4: Reference D+L11V+V89L+T110K (SEQ ID NO: 94) (VHH)
VHH: B2 VHH with L11V, V93L, T116K

Further lines, the binder ahead of its results:

B1: Reference C (SEQ ID NO: 3) (VHH)
VHH: B2 VHH
notes: Heavy-chain immunoglobulin single variable domain (VH-derived domain antibody); Captured on human serum albumin; also called DOM7r-92-100
binding result: binds

B3: Reference D+L11V+V89L (SEQ ID NO: 93) (VHH)
VHH: B2 VHH with L11V, V93L
binding result: binds

Source: patent US20180312578A1 (Ablynx, published 2018)
